Results: patent US20090170750A1 (Novo Nordisk, published 2009)

Target: purified recombinant human insulin receptor-exon 11 (human) (UniProt P06213)
Assay: competition with 125I-insulin (SPA)

purified recombinant human insulin receptor-exon 11 (human), sequence (P06213 other isoform, or with tags, fused parts or gaps limits assumed, form in doubt): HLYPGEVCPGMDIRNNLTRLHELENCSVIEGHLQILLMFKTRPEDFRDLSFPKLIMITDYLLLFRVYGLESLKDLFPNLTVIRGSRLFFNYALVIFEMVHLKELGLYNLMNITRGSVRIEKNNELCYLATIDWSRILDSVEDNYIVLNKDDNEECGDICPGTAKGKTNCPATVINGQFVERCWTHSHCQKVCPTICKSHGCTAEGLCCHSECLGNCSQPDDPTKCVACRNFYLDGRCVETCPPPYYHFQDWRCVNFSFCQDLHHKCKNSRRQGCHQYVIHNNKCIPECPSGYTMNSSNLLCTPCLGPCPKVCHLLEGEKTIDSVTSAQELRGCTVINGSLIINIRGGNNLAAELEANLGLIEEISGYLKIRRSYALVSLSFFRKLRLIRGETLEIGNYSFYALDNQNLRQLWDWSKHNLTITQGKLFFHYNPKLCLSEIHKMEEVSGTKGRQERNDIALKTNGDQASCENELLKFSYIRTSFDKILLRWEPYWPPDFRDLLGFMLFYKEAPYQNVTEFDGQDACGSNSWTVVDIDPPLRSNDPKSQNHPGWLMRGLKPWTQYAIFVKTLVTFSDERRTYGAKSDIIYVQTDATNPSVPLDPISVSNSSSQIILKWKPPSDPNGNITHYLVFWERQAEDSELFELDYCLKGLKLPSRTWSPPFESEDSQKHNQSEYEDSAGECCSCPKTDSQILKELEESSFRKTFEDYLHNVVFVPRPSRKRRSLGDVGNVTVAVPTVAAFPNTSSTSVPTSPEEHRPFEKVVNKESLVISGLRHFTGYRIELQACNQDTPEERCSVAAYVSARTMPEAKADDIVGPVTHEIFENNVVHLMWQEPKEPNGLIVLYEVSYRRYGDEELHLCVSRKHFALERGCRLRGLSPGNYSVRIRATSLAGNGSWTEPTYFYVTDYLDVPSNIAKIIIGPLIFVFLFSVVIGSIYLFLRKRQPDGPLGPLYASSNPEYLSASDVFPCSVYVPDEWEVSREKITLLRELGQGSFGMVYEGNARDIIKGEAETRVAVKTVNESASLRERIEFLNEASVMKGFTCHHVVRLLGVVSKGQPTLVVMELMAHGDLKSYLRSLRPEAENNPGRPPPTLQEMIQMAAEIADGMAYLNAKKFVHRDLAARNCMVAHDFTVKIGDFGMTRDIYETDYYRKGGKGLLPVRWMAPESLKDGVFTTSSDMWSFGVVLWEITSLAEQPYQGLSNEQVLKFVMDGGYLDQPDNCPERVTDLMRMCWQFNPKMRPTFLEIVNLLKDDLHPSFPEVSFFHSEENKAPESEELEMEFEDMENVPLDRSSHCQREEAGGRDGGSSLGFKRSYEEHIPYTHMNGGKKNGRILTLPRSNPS

| IR, binding relative to human insulin [%] | Substance |
| --- | --- |
| 33 | single-chain insulin PAK 1723, connecting peptide VGSSRGK [A21G] (from UniProt P01308 25-53; P01308 90-110) (ligand) |
| 42 | single-chain insulin PAK 1733, connecting peptide VGSSSGK [A21G] (from UniProt P01308 25-53; P01308 90-110) (ligand) |
| 211 | single-chain insulin PAK 1734, connecting peptide VGLSSGK [A21G] (from UniProt P01308 25-53; P01308 90-110) (ligand) |
| 89 | single-chain insulin PAK 1738, connecting peptide VGSSSGK [A18Q] (from UniProt P01308 25-53; P01308 90-110) (ligand) |
| 90 | single-chain insulin PAK 1740, connecting peptide VGSSSGK [B1G_B3Q_A18Q_A21G] (from UniProt P01308 25-53; P01308 90-110) (ligand) |
| 80 | single-chain insulin PAK 1744, connecting peptide VGSSSGK [A18Q_A21G] (from UniProt P01308 25-53; P01308 90-110) (ligand) |
| 20 | single-chain insulin PAK 1762, connecting peptide AGMGSGP [A18Q_A21G] (from UniProt P01308 25-53; P01308 90-110) (ligand) |
| 120 | single-chain insulin PAK 1764, connecting peptide AGLGSGK [A18Q_A21G] (from UniProt P01308 25-53; P01308 90-110) (ligand) |
| 28 | single-chain insulin PAK 1767, connecting peptide AGRGSGP [A18Q_A21G] (from UniProt P01308 25-53; P01308 90-110) (ligand) |
| 23 | single-chain insulin PAK 1784, connecting peptide WASGSGK [A18Q_A21G] (from UniProt P01308 25-53; P01308 90-110) (ligand) |
| 136 | single-chain insulin PAK 1785, connecting peptide ASWGSGK [A18Q_A21G] (from UniProt P01308 25-53; P01308 90-110) (ligand) |
| 123 | single-chain insulin PAK 1787, connecting peptide VGLSSGQ [A18Q_A21G] (from UniProt P01308 25-53; P01308 90-110) (ligand) |
| 323 | single-chain insulin PAK 1788, connecting peptide VGLYSGK [A18Q_A21G] (from UniProt P01308 25-53; P01308 90-110) (ligand) |
| 248 | single-chain insulin PAK 1789, connecting peptide VGLRSGK [A18Q_A21G] (from UniProt P01308 25-53; P01308 90-110) (ligand) |
| 261 | single-chain insulin PAK 1790, connecting peptide VGLMSGK [A18Q_A21G] (from UniProt P01308 25-53; P01308 90-110) (ligand) |
| 226 | single-chain insulin PAK 1791, connecting peptide HGLYSGK [A18Q_A21G] (from UniProt P01308 25-53; P01308 90-110) (ligand) |
| 102 | single-chain insulin PAK 1796, connecting peptide AWSGSGK [A18Q_A21G] (from UniProt P01308 25-53; P01308 90-110) (ligand) |
| 175 | single-chain insulin PAK 1800, connecting peptide AGRGSGK [A18Q_A21G] (from UniProt P01308 25-53; P01308 90-110) (ligand) |
| 25 | single-chain insulin PAK 1802, connecting peptide AGRGK [A18Q_A21G] (from UniProt P01308 25-53; P01308 90-110) (ligand) |
| 83 | single-chain insulin PAK 1805, connecting peptide AGRGSGK [B3Q_A18Q_A21G] (from UniProt P01308 25-53; P01308 90-110) (ligand) |
| 86 | single-chain insulin PAK 1808, connecting peptide AGRGSGK [B1G_B3Q_A18Q_A21G] (from UniProt P01308 25-53; P01308 90-110) (ligand) |
| 73 | single-chain insulin PAK 1810, connecting peptide TGLGSGQ [A18Q_A21G] (from UniProt P01308 25-53; P01308 90-110) (ligand) |
| 136 | single-chain insulin PAK 1811, connecting peptide TGLGSGK [A18Q_A21G] (from UniProt P01308 25-53; P01308 90-110) (ligand) |

| IR, binding relative to human insulin [%] | Substance |
| --- | --- |
| 118 | single-chain insulin PAK 1812, connecting peptide TGLGRGK [A18Q_A21G] (from UniProt P01308 25-53; P01308 90-110) (ligand) |
| 37 | single-chain insulin PAK 1816, connecting peptide AGLGSGQ [B3Q_A18Q] (from UniProt P01308 25-53; P01308 90-110) (ligand) |
| 63 | single-chain insulin PAK 1817, connecting peptide AGRGSGK [A21G] (from UniProt P01308 25-53; P01308 90-110) (ligand) |
| 125 | single-chain insulin PAK 1818, connecting peptide KGLGSGQ [B3Q_B29R_A18Q_A21G] (from UniProt P01308 25-53; P01308 90-110) (ligand) |
| 128 | single-chain insulin PAK 1821, connecting peptide TGLGSGK [B3Q_B29R_A18Q_A21G] (from UniProt P01308 25-53; P01308 90-110) (ligand) |
| 75 | single-chain insulin PAK 1824, connecting peptide GRGSGK [B1G_B3Q_A18Q_A21G] (from UniProt P01308 25-53; P01308 90-110) (ligand) |
| 50 | single-chain insulin PAK 1835, connecting peptide TGLGKGQ [B29E_A18Q] (from UniProt P01308 25-53; P01308 90-110) (ligand) |
| 113 | single-chain insulin PAK 1838, connecting peptide TGLGKGQ [B29R_A18Q] (from UniProt P01308 25-53; P01308 90-110) (ligand) |
| 92 | single-chain insulin PAK 1846, connecting peptide TGLGKGR [B29A_A18Q] (from UniProt P01308 25-53; P01308 90-110) (ligand) |
| 82 | single-chain insulin PAK 1847, connecting peptide TGLGKGR [B27E_B29A_A18Q] (from UniProt P01308 25-53; P01308 90-110) (ligand) |
| 40 | single-chain insulin PAK 1848, connecting peptide TGLGKGR [B27E_B29E_A18Q] (from UniProt P01308 25-53; P01308 90-110) (ligand) |
| 60 | single-chain insulin PAK 1849, connecting peptide TGLGKGR [B29E_A18Q] (from UniProt P01308 25-53; P01308 90-110) (ligand) |
| 40 | single-chain insulin PAK 1854, connecting peptide VGLYSGK [B29E_A18Q] (from UniProt P01308 25-53; P01308 90-110) (ligand) |
| 221 | single-chain insulin PAK 1855, connecting peptide VGLYSGK [B28D_A18Q] (from UniProt P01308 25-53; P01308 90-110) (ligand) |
| 83 | single-chain insulin PAK 1860, connecting peptide VGSSSGK [B3K_A18Q_A21G] (from UniProt P01308 25-53; P01308 90-110) (ligand) |
| 301 | single-chain insulin PAK 1864, connecting peptide TGLGSGK [B3K_A18Q_A21G] (from UniProt P01308 25-53; P01308 90-110) (ligand) |
| 196 | single-chain insulin PAK 1866, connecting peptide VGLSSGQ [A18Q] (from UniProt P01308 25-53; P01308 90-110) (ligand) |
| 69 | single-chain insulin PAK 1869, connecting peptide VGLSSGQ [B22K_B29A_A18Q] (from UniProt P01308 25-53; P01308 90-110) (ligand) |
| 82 | single-chain insulin PAK 1871, connecting peptide VGLSSGQ [B29A_A18K] (from UniProt P01308 25-53; P01308 90-110) (ligand) |
| 35 | single-chain insulin PAK 1875, connecting peptide VGLSSGQ [B28K_B29A_A18Q] (from UniProt P01308 25-53; P01308 90-110) (ligand) |
| 38 | single-chain insulin PAK 1876, connecting peptide VGLSSGQ [B27K_B29A_A18Q] (from UniProt P01308 25-53; P01308 90-110) (ligand) |
| 140 | single-chain insulin PAK 1877, connecting peptide TGLGSGK [B28D_A18Q] (from UniProt P01308 25-53; P01308 90-110) (ligand) |
| 172 | single-chain insulin PAK 1878, connecting peptide VGLSSGQ [B3K_A18K_A21G] (from UniProt P01308 25-53; P01308 90-110) (ligand) |
